“And” between values parts separate entries of the source, which are not always exact repeats. Equal values may be shown once.

What is called Kd is the concentration at which binding is half-saturated.

Data set [1] addresses CRD-BP WT (mouse) (UniProt O88477). Nature of the data set: EMSA. To be noted: EMSA as in refs 21,22 (buffer not given; competitor preincubation 35 C), FP: binding buffer stock 10 mM Tris-HCl pH 7.4, 2.5 mM EDTA, 5% glycerol, 0.002% …. In general terms: In EMSA bound probe runs differently from free probe, usually more slowly.
In a further data set the target is CRD-BP Y5A Y5A (mouse) (UniProt O88477). Nature of the data set: EMSA. The note with it: EMSA as in refs 21,22 (buffer not given; competitor preincubation 35 C); FP: binding buffer stock 10 mM Tris-HCl pH 7.4, 2.5 mM EDTA, 5% glycerol, 0.002% ….
The target of a further data set is CRD-BP KH3 G422D (mouse) (UniProt O88477). Nature of the data set: EMSA. The note with it: EMSA as in refs 21,22 (buffer not given; competitor preincubation 35 C); FP: binding buffer stock 10 mM Tris-HCl pH 7.4, 2.5 mM EDTA, 5% glycerol, 0.002% ….
The target of the next data set is CRD-BP KH4 G504D (mouse) (UniProt O88477). Nature of the data set: EMSA. The note with it: EMSA as in refs 21,22 (buffer not given; competitor preincubation 35 C); FP: binding buffer stock 10 mM Tris-HCl pH 7.4, 2.5 mM EDTA, 5% glycerol, 0.002% ….
The target of another data set is CRD-BP KH2 G293D (mouse) (UniProt O88477). Nature of the data set: EMSA. To be noted: EMSA as in refs 21,22 (buffer not given; competitor preincubation 35 C); FP: binding buffer stock 10 mM Tris-HCl pH 7.4, 2.5 mM EDTA, 5% glycerol, 0.002% ….
For another data set, the target named is CRD-BP KH1 G212D (mouse) (UniProt O88477). Nature of the data set: EMSA. The note with it: EMSA as in refs 21,22 (buffer not given; competitor preincubation 35 C); FP: binding buffer stock 10 mM Tris-HCl pH 7.4, 2.5 mM EDTA, 5% glycerol, 0.002% ….
Data set [2] has as its target CRD-BP KH3-4 G422D;G504D (mouse) (UniProt O88477). Kind of data set: EMSA. The note with it: EMSA as in refs 21,22 (buffer not given; competitor preincubation 35 C); FP: binding buffer stock 10 mM Tris-HCl pH 7.4, 2.5 mM EDTA, 5% glycerol, 0.002% ….
Data set [3] addresses CRD-BP D526E D526E (mouse) (UniProt O88477). Nature of the data set: EMSA. The note with it: EMSA as in refs 21,22 (buffer not given; competitor preincubation 35 C); FP: binding buffer stock 10 mM Tris-HCl pH 7.4, 2.5 mM EDTA, 5% glycerol, 0.002% ….
Data set [4] deals with CRD-BP WT (mouse) (UniProt O88477). Kind of data set: competition. To be noted: EMSA as in refs 21,22 (buffer not given; competitor preincubation 35 C); FP: binding buffer stock 10 mM Tris-HCl pH 7.4, 2.5 mM EDTA, 5% glycerol, 0.002% ….
The next data set has as its system CRD-BP D526E (mouse). Kind of data set: EMSA. To be noted: EMSA as in refs 21,22 (buffer not given; competitor preincubation 35 C); FP: binding buffer stock 10 mM Tris-HCl pH 7.4, 2.5 mM EDTA, 5% glycerol, 0.002% ….
In a further data set the test system is CRD-BP Y5A (mouse). Nature of the data set: EMSA. The note with it: EMSA as in refs 21,22 (buffer not given; competitor preincubation 35 C); FP: binding buffer stock 10 mM Tris-HCl pH 7.4, 2.5 mM EDTA, 5% glycerol, 0.002% ….
The test system of the next data set is CRD-BP KH3-4 (mouse). Kind of data set: EMSA. The note with it: EMSA as in refs 21,22 (buffer not given; competitor preincubation 35 C); FP: binding buffer stock 10 mM Tris-HCl pH 7.4, 2.5 mM EDTA, 5% glycerol, 0.002% ….

Chain of CRD-BP WT (mouse) (O88477 whole entry): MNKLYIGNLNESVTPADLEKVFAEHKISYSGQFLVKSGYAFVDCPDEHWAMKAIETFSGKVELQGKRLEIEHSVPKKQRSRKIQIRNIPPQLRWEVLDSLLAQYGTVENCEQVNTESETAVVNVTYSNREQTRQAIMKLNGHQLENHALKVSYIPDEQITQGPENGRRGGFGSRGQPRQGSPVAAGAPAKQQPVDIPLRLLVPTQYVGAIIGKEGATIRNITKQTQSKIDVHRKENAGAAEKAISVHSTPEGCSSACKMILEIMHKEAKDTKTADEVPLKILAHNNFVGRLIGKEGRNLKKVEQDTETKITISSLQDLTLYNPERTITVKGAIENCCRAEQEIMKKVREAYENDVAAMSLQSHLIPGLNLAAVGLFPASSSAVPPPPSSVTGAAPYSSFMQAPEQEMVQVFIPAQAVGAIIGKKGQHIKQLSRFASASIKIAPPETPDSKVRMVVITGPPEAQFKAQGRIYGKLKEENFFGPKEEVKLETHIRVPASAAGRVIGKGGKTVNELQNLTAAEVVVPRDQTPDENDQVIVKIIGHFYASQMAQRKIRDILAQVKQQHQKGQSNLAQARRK
Chain of CRD-BP D526E D526E (mouse) (O88477 whole entry D526E): as the sequence (O88477 whole entry) above, with D526E counted along it
Chain of CRD-BP KH3 G422D (mouse) (O88477 whole entry G422D): as the sequence (O88477 whole entry) above, with G422D counted along it
Chain of CRD-BP KH2 G293D (mouse) (O88477 whole entry G293D): as the sequence (O88477 whole entry) above, with G293D counted along it
Chain of CRD-BP Y5A Y5A (mouse) (O88477 other isoform, or with tags, fused parts or gaps): as the sequence (O88477 whole entry) above, with Y5A counted along it
Chain of CRD-BP KH3-4 G422D;G504D (mouse) (O88477 whole entry G422D/G504D): as the sequence (O88477 whole entry) above, with G422D, G504D counted along it
Chain of CRD-BP KH4 G504D (mouse) (O88477 whole entry G504D): as the sequence (O88477 whole entry) above, with G504D counted along it
Chain of CRD-BP KH1 G212D (mouse) (O88477 whole entry G212D): as the sequence (O88477 whole entry) above, with G212D counted along it

For the substance “GGAUUGUACAAAUAAGUGUGCAGUAUCUGUGAACUGAAUUCACCACAGACUUUAGCUUUCUGAGCAAGAGGAUUUUGCGUCAGAGAAAUGUCUGUCCAUUUUUAUUCAGGGGAAACUUGAUU [MITF RNA 1550-1669]”, the binding result with CRD-BP WT (mouse) [1] is reported as “binds”.
The same measure, in the same setting: then “GGAUUGUACAAAUAAGUGUGCAGUAUCUGUGAACUGAAUUCACCACAGACUUUAGCUUUCUGAGCAAGAGGA [MITF RNA 1550-1619]”, with “no binding”.
In the case of “GGCUGAAUUCACCACAGACUUUAGCUUUCUGAGCAAGAGGAUUUUGCGUCAGAGAAAUGUCUGUCCAUUUUUAUUCAGGGGAAACUUGAUUUGAGAUUUUUAUGCCUGUGACUUCCUUGGAAAUCAAAUGUAAAGUUUAAUUGAAAGAAUGUAAAGCAACCA [MITF RNA 1581-1740]”, the binding entry in the data set with CRD-BP WT (mouse) [1] is listed as “binds”.
For the substance “GGUUUGCGUCAGAGAAAUGUCUGUCCAUUUUUAUUCAGGGGAAACUUGAUUUGAGAUUUUUAUGCCUGUGACUUCCUUGGAAAUCAAAUGUAAAGUUUAAUUGAAAGAAUGUAAAGCAACCA [MITF RNA 1621-1740]”, the binding result with CRD-BP WT (mouse) [1] is listed as “binds”.
Consider “GGAUUGUACAAAUAAGUGUGCAGUAUCUGUGAACUGAAUUCACCACAGACUUUAGCUUUCUGAGCAAGAGGAUUUUGCGUCAGAGAAAUGUCUGUCCAUUUUUAUUCAGGGGAAACUUGAUUUGAGAUUUUUAUGCCUGUGACUUCCUUGGAAAUCAAA [MITF RNA 1550-1709]”, for which the binding result with CRD-BP WT (mouse) [1] is recorded as “binds”.
For the substance MITF RNA 1550-1740 (del1621-1669), in the data set with CRD-BP WT (mouse) [1] (40 nM RNA), the Kd is 0.97 µM.
With “GGACACUUGUUAGCGAAUCCUCCCUGCACUGCAUUCGCACAAACUGCUUCCUUUCUUGAUUCGUAGAUUUAAUAACUUACCUGAAGGGGUUUUCUUGAUAAUUUUCCUUUAAUAUGAAAUUUUUUUUCAUGCUUUAUCAAUAGCCCAGGAUAUAUUUUAUUUUUAGAAUUUUGUGAAACAGACUUGUAUAUUCUAUUUUACAACUACAAAUGCCUCCAAAGUA [MITF RNA 1330-1550]”, in the data set with CRD-BP WT (mouse) [1], the binding result is reported as “binds more weakly”.
For “GGAUUGUACAAAUAAGUGUGCAGUAUCUGUGAACUGAAUUCACCACAGACUUUAGCUUUCUGAGCAAGAGGAUUUUGCGUCAGAGAAAUGUCUGUCCAUUUUUAUUCAGGGGAAACUUGAUUUGAGAUUUUUAUGCCUGUGACUUCCUUGGAAAUCAAAUGUAAAGUUUAAUUGAAAGAAUGUAAAGCAACCA [MITF RNA 1550-1740]”, the Kd with CRD-BP Y5A Y5A (mouse) is 0.085 µM; in data set [2], 0.155 µM; in data set [3] it was 0.091 µM; in the data set with CRD-BP WT (mouse) [1], 0.323 µM and 0.132 µM. The binding result with CRD-BP KH3 G422D (mouse) is given as “no binding”; with CRD-BP KH4 G504D (mouse), “no binding”; with CRD-BP KH2 G293D (mouse) it was “no binding”; with CRD-BP KH1 G212D (mouse) it was “binds”; with CRD-BP WT (mouse) [1] it was “binds”; with CRD-BP WT (mouse) [4], “binds”.
For the substance MITF RNA 1550-1740, the Kd amounted to 0.091 µM in the data set with CRD-BP D526E (mouse); 0.085 µM in the data set on CRD-BP Y5A (mouse); 0.155 µM in the data set on CRD-BP KH3-4 (mouse); 0.323 µM in the data set with CRD-BP WT (mouse) [1] (40 nM RNA, compared with deletion RNA); 0.132 µM with CRD-BP WT (mouse) [1].

Values taken from article PMC5300761.
